According to patent US20070243558A1, “Peptide Stabilization” (priority 2004, published 2007):
Read-outs that look alike come from different tables or passages of the source.

Experiments:
[1] = Stability of U-INTP in samples after three days at room temperature, without and with stabilizer (Table 4); format: physicochemical; design: U-INTP test result, Immed.: unit not given beside the values; settings: for U-INTP test result, 3 days + stabilizer / U-INTP, 3 days + stabilizer, in % of immed.-sample: with stabilizer
Source text: Two parallel tests were done for each sample.

[2] = Stability of the same analytes in serum samples, with and without 5% DMSO (Table 3); format: physicochemical
Source text: Table 3 is a test corresponding to the test of Table 2, but where the ten samples to be tested were serum samples rather than plasma samples.

[3] = Storage stability of analytes in serum sample without stabilizer (background statement); format: physicochemical; settings: room temperature
Source text: In connection with said determinations and sample handling the poor stability of gastrin-17 has proven to be a problem, due to the fact that it decomposes rapidly in the sample. […] This is in contrast to pepsinogen I and II, which retain their activity at room temperature for many days, and Helicobacter pylori antibodies, which survive for at least three days under refrigerator conditions.

[4] = room temperature; for effect of adding DMSO on the activity: EDTA-plasma samples, day 0 and day 3
Description: The effect of adding DMSO was tested on pepsinogen I, pepsinogen II, Helicobacter pylori antibodies and gastrin-17. The results are indicated at day 0 and day 3.

[5] = Sample 1, three days at room temperature
[6] = Sample 1 parall., three days at room temperature
[7] = Sample 2, three days at room temperature
[8] = Sample 2 parall., three days at room temperature
[9] = EDTA-plasma sample PL466s, 0% DMSO, day 0
[10] = EDTA-plasma sample PL466s, 0% DMSO, day 3
[11] = EDTA-plasma sample PL466s, 5% DMSO, day 0
[12] = EDTA-plasma sample PL466s, 5% DMSO, day 3
[13] = EDTA-plasma sample PL467s, 0% DMSO, day 0
[14] = EDTA-plasma sample PL467s, 0% DMSO, day 3
[15] = EDTA-plasma sample PL467s, 5% DMSO, day 0
[16] = EDTA-plasma sample PL467s, 5% DMSO, day 3
[17] = EDTA-plasma sample PL471s, 0% DMSO, day 0
[18] = EDTA-plasma sample PL471s, 0% DMSO, day 3
[19] = EDTA-plasma sample PL471s, 5% DMSO, day 0
[20] = EDTA-plasma sample PL471s, 5% DMSO, day 3
[21] = EDTA-plasma sample PL472s, 0% DMSO, day 0
[22] = EDTA-plasma sample PL472s, 0% DMSO, day 3
[23] = EDTA-plasma sample PL472s, 5% DMSO, day 0
[24] = EDTA-plasma sample PL472s, 5% DMSO, day 3
[25] = EDTA-plasma sample PL473s, 0% DMSO, day 0
[26] = EDTA-plasma sample PL473s, 0% DMSO, day 3
[27] = EDTA-plasma sample PL473s, 5% DMSO, day 0
[28] = EDTA-plasma sample PL473s, 5% DMSO, day 3

Molecule: collagen I aminoterminal telopeptide [U-INTP]
- U-INTP test result, Immed. ([1]; Sample 1, immediately): 200
- U-INTP test result, 3 days no stabilizer [1, 5]: 189
- U-INTP, 3 days no stabilizer, in % of immed.-sample [1, 5]: 94.5%
- U-INTP test result, 3 days + stabilizer [1, 5]: 202
- U-INTP, 3 days + stabilizer, in % of immed.-sample [1, 5]: 101.0%
- U-INTP test result, Immed. ([1]; Sample 1 parall., immediately): 199
- U-INTP test result, 3 days no stabilizer [1, 6]: 187
- U-INTP, 3 days no stabilizer, in % of immed.-sample [1, 6]: 94.0%
- U-INTP test result, 3 days + stabilizer [1, 6]: 209
- U-INTP, 3 days + stabilizer, in % of immed.-sample [1, 6]: 105.0%
- U-INTP test result, Immed. ([1]; Sample 2, immediately): 113
- U-INTP test result, 3 days no stabilizer [1, 7]: 115
- U-INTP, 3 days no stabilizer, in % of immed.-sample [1, 7]: 101.8%
- U-INTP test result, 3 days + stabilizer [1, 7]: 144
- U-INTP, 3 days + stabilizer, in % of immed.-sample [1, 7]: 127.4%
- U-INTP test result, Immed. ([1]; Sample 2 parall., immediately): 118
- U-INTP test result, 3 days no stabilizer [1, 8]: 114
- U-INTP, 3 days no stabilizer, in % of immed.-sample [1, 8]: 96.6%
- U-INTP test result, 3 days + stabilizer [1, 8]: 136
- U-INTP, 3 days + stabilizer, in % of immed.-sample [1, 8]: 115.3%

Molecule: pepsinogen I [PGI]
- PGI concentration ([2]; serum sample PL411s, 0% DMSO): 283.6 µg/L
- PGI concentration ([2]; serum sample PL411s, 5% DMSO): 296.0 µg/L
- PGI concentration ([2]; serum sample PL420b, 0% DMSO): 75.5 µg/L
- PGI concentration ([2]; serum sample PL420b, 5% DMSO): 79.3 µg/L
- PGI concentration ([2]; serum sample PL426s, 0% DMSO): 49.7 µg/L
- PGI concentration ([2]; serum sample PL426s, 5% DMSO): 50.6 µg/L
- PGI concentration ([2]; serum sample PL438s, 0% DMSO): 158.6 µg/L
- PGI concentration ([2]; serum sample PL438s, 5% DMSO): 156.0 µg/L
- PGI concentration ([2]; serum sample PL439s, 0% DMSO): 67.6 µg/L
- PGI concentration ([2]; serum sample PL439s, 5% DMSO): 68.5 µg/L
- PGI concentration ([2]; serum sample PL447b, 0% DMSO): 6.0 µg/L
- PGI concentration ([2]; serum sample PL447b, 5% DMSO): 6.0 µg/L
- PGI concentration ([2]; serum sample PL454s, 0% DMSO): 100.6 µg/L
- PGI concentration ([2]; serum sample PL454s, 5% DMSO): 102.3 µg/L
- PGI concentration ([2]; serum sample PL455b, 0% DMSO): 79.2 µg/L
- PGI concentration ([2]; serum sample PL455b, 5% DMSO): 81.5 µg/L
- PGI concentration ([2]; serum sample PL457b, 0% DMSO): 101.1 µg/L
- PGI concentration ([2]; serum sample PL457b, 5% DMSO): 106.9 µg/L
- PGI concentration ([2]; serum sample PL458s, 0% DMSO): 77.1 µg/L
- PGI concentration ([2]; serum sample PL458s, 5% DMSO): 80.1 µg/L
- time for which activity is retained [3]: many days
- PGI concentration [4, 9]: 58.8 µg/L
- PGI concentration [4, 10]: 76.9 µg/L
- PGI concentration [4, 11]: 60.5 µg/L
- PGI concentration [4, 12]: 77.4 µg/L
- PGI concentration [4, 13]: 73.3 µg/L
- PGI concentration [4, 14]: 94.9 µg/L
- PGI concentration [4, 15]: 76.8 µg/L
- PGI concentration [4, 16]: 98.8 µg/L
- PGI concentration [4, 17]: 60.6 µg/L
- PGI concentration [4, 18]: 85.5 µg/L
- PGI concentration [4, 19]: 67.6 µg/L
- PGI concentration [4, 20]: 84.3 µg/L
- PGI concentration [4, 21]: 110.3 µg/L
- PGI concentration [4, 22]: 134.8 µg/L
- PGI concentration [4, 23]: 109.4 µg/L
- PGI concentration [4, 24]: 135.6 µg/L
- PGI concentration [4, 25]: 94.9 µg/L
- PGI concentration [4, 26]: 115.4 µg/L
- PGI concentration [4, 27]: 94.7 µg/L
- PGI concentration [4, 28]: 102.1 µg/L
- effect of adding DMSO on the activity [4]: essentially no effect

B1: pepsinogen II (protein, UniProt P20142 17-388, looked up)
pro-form: AVVKVPLKKFKSIRETMKEKGLLGEFLRTHKYDPAWKYRFGDLSVTYEPMAYMDAAYFGEISIGTPPQNFLVLFDTGSSNLWVPSVYCQSQACTSHSRFNPSESSTYSTNGQTFSLQYGSGSLTGFFGYDTLTVQSIQVPNQEFGLSENEPGTNFVYAQFDGIMGLAYPALSVDEATTAMQGMVQEGALTSPVFSVYLSNQQGSSGGAVVFGGVDSSLYTGQIYWAPVTQELYWQIGIEEFLIGGQASGWCSEGCQAIVDTGTSLLTVPQQYMSALLQATGAQEDEYGQFLVNCNSIQNLPSLTFIINGVEFPLPPSSYILSNNGYCTVGVEPTYLSSQNGQPLWILGDVFLRSYYSVYDLGNNRVGFATAA
modifications: pro-form
notes: analyte determined from serum or plasma sample
- PGII concentration ([2]; serum sample PL411s, 0% DMSO): 32.8 µg/L
- PGII concentration ([2]; serum sample PL411s, 5% DMSO): 33.6 µg/L
- PGII concentration ([2]; serum sample PL420b, 0% DMSO): 6.3 µg/L
- PGII concentration ([2]; serum sample PL420b, 5% DMSO): 5.7 µg/L
- PGII concentration ([2]; serum sample PL426s, 0% DMSO): 3.5 µg/L
- PGII concentration ([2]; serum sample PL426s, 5% DMSO): 3.1 µg/L
- PGII concentration ([2]; serum sample PL438s, 0% DMSO): 13.6 µg/L
- PGII concentration ([2]; serum sample PL438s, 5% DMSO): 12.8 µg/L
- PGII concentration ([2]; serum sample PL439s, 0% DMSO): 5.7 µg/L
- PGII concentration ([2]; serum sample PL439s, 5% DMSO): 5.2 µg/L
- PGII concentration ([2]; serum sample PL447b, 0% DMSO): 4.9 µg/L
- PGII concentration ([2]; serum sample PL447b, 5% DMSO): 4.6 µg/L
- PGII concentration ([2]; serum sample PL454s, 0% DMSO): 7.7 µg/L
- PGII concentration ([2]; serum sample PL454s, 5% DMSO): 7.3 µg/L
- PGII concentration ([2]; serum sample PL455b, 0% DMSO): 7.3 µg/L
- PGII concentration ([2]; serum sample PL455b, 5% DMSO): 7.1 µg/L
- PGII concentration ([2]; serum sample PL457b, 0% DMSO): 7.1 µg/L
- PGII concentration ([2]; serum sample PL457b, 5% DMSO): 6 µg/L
- PGII concentration ([2]; serum sample PL458s, 0% DMSO): 6.7 µg/L
- PGII concentration ([2]; serum sample PL458s, 5% DMSO): 5.8 µg/L
- time for which activity is retained [3]: many days
- PGII concentration [4, 9]: 6.8 µg/L
- PGII concentration [4, 10]: 8.3 µg/L
- PGII concentration [4, 11]: 6.6 µg/L
- PGII concentration [4, 12]: 7.7 µg/L
- PGII concentration [4, 13]: 5 µg/L
- PGII concentration [4, 14]: 6.4 µg/L
- PGII concentration [4, 15]: 4.9 µg/L
- PGII concentration [4, 16]: 6.2 µg/L
- PGII concentration [4, 17]: 4.9 µg/L
- PGII concentration [4, 18]: 5.8 µg/L
- PGII concentration [4, 19]: 4.8 µg/L
- PGII concentration [4, 20]: 5.3 µg/L
- PGII concentration [4, 21]: 5.7 µg/L
- PGII concentration [4, 22]: 7.3 µg/L
- PGII concentration [4, 23]: 5.7 µg/L
- PGII concentration [4, 24]: 6.9 µg/L
- PGII concentration [4, 25]: 6.4 µg/L
- PGII concentration [4, 26]: 8.5 µg/L
- PGII concentration [4, 27]: 6.4 µg/L
- PGII concentration [4, 28]: 7.9 µg/L
- effect of adding DMSO on the activity [4]: essentially no effect
